Assay [1] deals with human BTLA extracellular domain with C-terminal 10xHis tag (human) (UniProt Q7Z6A9). In words: BLI (Octet RED96), antibody on AHC biosensor, His-tag-huBTLA in solution; column head prints nM, but Koff/Kon shows the values are in M. In general terms: BLI is a label-free optical method that tracks binding on a fibre tip over time.
For assay [2] the target is unchanged. Kind of assay: BLI (Octet RED96), antibody on AHC biosensor, His-tag-huBTLA in solution.

Chain of human BTLA extracellular domain with C-terminal 10xHis tag (human) (Q7Z6A9 other isoform, or with tags, fused parts or gaps): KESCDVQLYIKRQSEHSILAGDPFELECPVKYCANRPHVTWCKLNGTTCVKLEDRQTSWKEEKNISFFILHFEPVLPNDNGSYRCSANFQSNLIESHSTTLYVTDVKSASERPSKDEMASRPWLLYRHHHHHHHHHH

Consider Icatolimab (antibody), for which, in assay [1], the Kd came to 2.09 nM. In assay [2], this substance showed a koff of 0.00124 s⁻¹ and an on-rate (kon) of 621000 M⁻¹ s⁻¹.

As usually defined, the Kd is the equilibrium constant for the complex coming apart. The term koff denotes the first-order rate constant of dissociation. The low end stands for slow dissociation, the high end for fast dissociation. The term kon denotes the rate constant with which the complex forms. Low values mean slow association, high ones fast association.

(Values after US20260035464A1.)
